US9072737B2, “tPA mutant in the treatment of acute brain injury and neurodegenerative disorders” (HADASIT MEDICAL RESEARCH SERVICES & DEVELOPMENT LTD., priority 2008, dated 2015)
Entries after “also recorded” stand apart in the source; their conditions may differ.

Key:
[1] = system: CHI mice; test: Brain lesion size at day 20 post CHI; assay type: in vivo; conditions: p<0.005 vs control animals
Experimental: After the last NSS evaluation (day 20 post CHI) the brains were then extracted and sectioned coronally into 1-mm segments. The sections were photographed and the area of each section was determined using the NIH computer image analysis program. Any missing area was estimated by overlaying the affected section with images from the contralateral side from the same animal. The volume of the missing portion of the brain was defined as the sum of the missing areas in all sections multiplied by their thickness expressed in cubic pixels. […] Taken together, the data collected indicate that the tPA-S481A has a neuroprotective effect.

[2] = system: CHI mice; test: Neurological severity score (NSS) in closed head injury (CHI) model; assay type: in vivo; conditions: for NSS at day 20 following CHI: FIG. 2, 100 μg/mice i.p. two hours after CHI, compared with saline control
Excerpt: Briefly, after induction of ether anesthesia, a midline longitudinal incision was made, the skin was retracted and the skull was exposed. The left anterior frontal area was identified and a Teflon tipped cone (2-mm diameter) was placed 1 mm lateral to the midline, in the midcoronal plane. The head was held in place manually and a 75-g weight was dropped on the cone from a height of 18 cm, resulting in focal injury to the left hemisphere. […] In sham controls only anesthesia and skin incision were carried out.
Animals were awarded one point for failure to perform one item, so that scores can range from zero (healthy uninjured animals) to a maximum of 10, indicating severe neurological dysfunction, with failure to perform all tasks. The NSS obtained 1 h after trauma reflects the initial severity of injury and is inversely correlated with the neurological outcome. Animals were evaluated 5 h after CHI, and every two to three days until 20 days later. Each animal was assessed by an observer who was blinded to the treatment.
tPA has been reported to signal within the central nervous system by activating NMDA-R, a receptor for glutamine, implicated in neurotoxicity and exictotoxic neuronal cell death, through the cleavage of the NR-1 subunit of NMDA-R. The inventors therefore examined the effect of inhibiting tPA activation of NMDA-R on acute brain trauma, using a tPA mutated molecule devoid of serine protease catalytic activity. […] The effect of administering mutant tPA compositions was assessed using neurobehavioral evaluation based on the determination of a neurological severity score (NSS).

[3] = system: Blood Brain Barrier (BBB); test: Blood brain barrier permeability, Evans blue uptake into brain; assay type: in vivo, mice; conditions: single i.p. injection 1 mg/kg, FIG. 3 and FIG. 4A
Experimental: The uptake of Evans blue dye into a brain tissue served as a marker to for quantifying disruption of the blood-brain barrier and increase in permeability of the BBB. […] Data was expressed as absorbance at 620 nm per gram of tissue. The mean±SEM of data from 8-9 animals/group are shown.
FIG. 4A. Mice were injected i.p. with 25 μl of saline or saline containing either WT-tPA or mtPA (1 mg/kg each) alone or together with PAI-1 derived 18 amino acids (aa) (as denoted by SEQ ID NO. 8) or 6 aa (as denoted by SEQ ID NO. 3) peptides (1 mg/kg each). Ten minutes later, the mice were given an i.v. injection of 2% Evans blue (EB) in saline. One hour after injection of dye, organs were cleared of blood by transcardiac perfusion. […] Extruded dye was quantified by absorbance at 620 nm. The figure presents a histogram illustration of the absorbance of EB at […] per gram of tissue. […]
To determine the effect of injection of tPA-S^481A on BBB function, anesthetized mice were injected i.p. with 25 μl of saline or saline containing tPA or tPA mutant (tPA-Ser^481Ala) (1 mg/kg each), followed by the intravenous injection of 2% Evans blue in saline. Evans blue was quantified by absorbance at 620 nm.
Plasminogen activator inhibitor-1 (PAI-1) is recognized as the inhibitor of tPA. […] Extruded dye was quantified by absorbance at 620 nm. Data are expressed in FIG. 4A as absorbance per gram of tissue.

[4] = system: Blood Brain Barrier (BBB) after CHI; test: Duration of BBB permeability after CHI, Evans blue extravasation; assay type: in vivo, mice; conditions: mtPA i.p. 1, 2 or 3 hours after CHI; EB measured one hour after dye; FIG. 5
Experimental: Mice were treated with i.p. injection of mtPA 1, 2 or 3 hours after CHI. Five minutes after mtPA injection, the animals were given an IV injection of 2% Evans blue (EB) in saline. Extravasation of EB was measured one hour after injection of the dye. The figure presents a histogram illustration of the absorbance of EB at 620 nM per gram of tissue. The mean±SEM of data from 8-9 animals/group is shown. Abbreviations: Abs (Absorbance), T (time), h (hour), min. (minutes).
To examine the effect of tPA-S481A (mtPA) on BBB permeability after opening due to CHI, the tPA mutant was injected to 8-9 mice i.p. 1, 2 or 3 hours after CHI. Mice undergoing CHI alone served as controls for the indication of normal BBB behavior after head trauma. In both groups, the extravasation of EB was measured one hour after injection of the dye.

[5] = system: plasminogen; test: PA catalytic activity of tPA mutant; assay type: biochemical; conditions: data not shown
Excerpt: Tissue type plasminogen activator (tPA) a multidomain, glycosylated, serine protease is a fibrin specific activator of plasminogen and a very effective thrombolytic agent. It should be appreciated that “mutated tPA” or “mtPA” as used herein includes a mutated native tPA and recombinant mutated tPA, as well as modified forms of tPA that is devoid of the enzymatic activities of native tPA. More specifically, as used herein in the specification and in the claims section below, the term “devoid of protease or serine protease catalytic activity” and its derivatives refers to a mutated tPA molecule having impaired, decreased or reduced expression of activity. A preferred mutated tPA molecule lacks any catalytic activity. According to one embodiment of the present invention at least about 10-100%, more specifically, about 10%, 15%, 20%, 25%, 30%, 35%, 40%, 45%, 50%, 55%, 60%, 65%, 70%, 75%, 80%, 85%, 90%, 95%, 99% and even 100% of the tPA activity is abolished by the point mutation performed by the invention, as compared to the WT (wild type) tPA activity. It should be noted that the enzymatic activity of tPA can be measured by assessing the ability of the molecule to convert plasminogen to plasmin.

[6] = system: CHI mice; test: Lactate and glutamate concentration in CSF after CHI; assay type: in vivo; conditions: 100 μg/mice i.p. two hours after CHI
Experimental: CSF samples were taken from the cisterna magna in anaesthetized mice, using a microcapillary as described by others. Samples were immediately frozen at −70° C. until analysis by high-performance liquid chromatography (HPLC). Glutamate and lactate were derivatized using ortho-phthaldialdehyde/b-mercaptoethanol and the samples were injected onto the column. Peaks were detected using a fluorescence detector.
Therefore, groups of 8-9 animals were injected with mutant tPA, (100 μg/mice) in saline or saline alone intraperitoneally (i.p.) two hours after the head trauma and, the concentration of lactate and glutamate in the CSF have been measured.

| Molecule | Lesion size (volume of missing portion of the brain) [1] [pixels] | NSS at day 20 following CHI [2] | BBB permeability (Evans blue absorbance at 620 nm per gram of tissue) [3] | duration of increased BBB permeability after CHI [4] | neurological severity score (NSS) ([2]; FIG. 1, 100 μg/mice i.p. two hours after head trauma, 10-point scale) | PA catalytic activity [5] | accumulation of lactate in CSF post-TBI ([6]; FIG. 6A) | accumulation of glutamate in CSF post-TBI ([6]; FIG. 6B) | BBB permeability (Evans blue absorbance at 620 nm per gram of tissue) ([3]; 1 mg/kg) |
| --- | --- | --- | --- | --- | --- | --- | --- | --- | --- |
| WT tPA: Recombinant wild type human tissue plasminogen activator expressed in S2 Drosophila system, SEQ ID NO. 2 (protein, listed as Homo sapiens) GARSYQVICRDEKTQMIYQQHQSWLRPVLRSNRVEYCWCNSGRAQCHSVPVKSCSEPRCFNGGTCQQALYFSDFVCQCPEGFAGKCCEIDTRATCYEDQGISYRGTWSTAESGAECTNWNSSALAQKPYSGRRPDAIRLGLGNHNYCRNPDRDSKPWCYVFKAGKYSSEFCSTPACSEGNSDCYFGNGSAYRGTHSLTESGASCLPWNSMILIGKVYTAQNPSAQALGLGKHNYCRNPDGDAKPWCHVLKNRRLTWEYCDVPSCSTCGLRQYSQPQFRIKGGLFADIASHPWQAAIFAKHRRSPGERFLCGGILISSCWILSAAHCFQERFPPHHLTVILGRTYRVVPGEEEQKFEVEKYIVHKEFDDDTYDNDIALLQLKSDSSRCAQESSVVRTVCLPPADLQLPDWTECELSGYGKHEALSPFYSERLKEAHVRLYPSSRCTSQHLLNRTVTDNMLCAGDTRSGGPQANLHDACQGDSGGPLVCLNDGRMTLVGIISWGLGCGQKDVPGVYTKVTNYLDWIRDNMRP | 167289±31456 | significantly higher than that of control mice | increased BBB permeability | – | – | – | – | – | – |
| tPA-S481A: Recombinant human tPA with Ser481 to Ala point mutation, catalytically inactive, two extra N-terminal residues RS, SEQ ID NO. 1 (protein, listed as Homo sapiens) RSGARSYQVICRDEKTQMIYQQHQSWLRPVLRSNRVEYCWCNSGRAQCHSVPVKSCSEPRCFNGGTCQQALYFSDFVCQCPEGFAGKCCEIDTRATCYEDQGISYRGTWSTAESGAECTNWNSSALAQKPYSGRRPDAIRLGLGNHNYCRNPDRDSKPWCYVFKAGKYSSEFCSTPACSEGNSDCYFGNGSAYRGTHSLTESGASCLPWNSMILIGKVYTAQNPSAQALGLGKHNYCRNPDGDAKPWCHVLKNRRLTWEYCDVPSCSTCGLRQYSQPQFRIKGGLFADIASHPWQAAIFAKHRRSPGERFLCGGILISSCWILSAAHCFQERFPPHHLTVILGRTYRVVPGEEEQKFEVEKYIVHKEFDDDTYDNDIALLQLKSDSSRCAQESSVVRTVCLPPADLQLPDWTECELSGYGKHEALSPFYSERLKEAHVRLYPSSRCTSQHLLNRTVTDNMLCAGDTRSGGPQANLHDACQGDAGGPLVCLNDGRMTLVGIISWGLGCGQKDVPGVYTKVTNYLDWIRDNMRP | 41525±10987 | significantly improved initial (not shown) and long-term (FIG. 2) neurological outcome | – | markedly extended the duration of increased BBB permeability | 0.43 | lacks any PA catalytic activity | clearly alleviates the accumulation | clearly alleviates the accumulation | increased BBB permeability similar to the results of wild type; also recorded: increases BBB permeability to the same extent as WT-tPA |
